Results: PMC10786891, “Massively parallel profiling of RNA-targeting CRISPR-Cas13d”

T1: EsCas13d, nuclease-dead (Eubacterium siraeum, UniProt B0MS50, R295A;H300A;R849A;H854A)
T1 sequence: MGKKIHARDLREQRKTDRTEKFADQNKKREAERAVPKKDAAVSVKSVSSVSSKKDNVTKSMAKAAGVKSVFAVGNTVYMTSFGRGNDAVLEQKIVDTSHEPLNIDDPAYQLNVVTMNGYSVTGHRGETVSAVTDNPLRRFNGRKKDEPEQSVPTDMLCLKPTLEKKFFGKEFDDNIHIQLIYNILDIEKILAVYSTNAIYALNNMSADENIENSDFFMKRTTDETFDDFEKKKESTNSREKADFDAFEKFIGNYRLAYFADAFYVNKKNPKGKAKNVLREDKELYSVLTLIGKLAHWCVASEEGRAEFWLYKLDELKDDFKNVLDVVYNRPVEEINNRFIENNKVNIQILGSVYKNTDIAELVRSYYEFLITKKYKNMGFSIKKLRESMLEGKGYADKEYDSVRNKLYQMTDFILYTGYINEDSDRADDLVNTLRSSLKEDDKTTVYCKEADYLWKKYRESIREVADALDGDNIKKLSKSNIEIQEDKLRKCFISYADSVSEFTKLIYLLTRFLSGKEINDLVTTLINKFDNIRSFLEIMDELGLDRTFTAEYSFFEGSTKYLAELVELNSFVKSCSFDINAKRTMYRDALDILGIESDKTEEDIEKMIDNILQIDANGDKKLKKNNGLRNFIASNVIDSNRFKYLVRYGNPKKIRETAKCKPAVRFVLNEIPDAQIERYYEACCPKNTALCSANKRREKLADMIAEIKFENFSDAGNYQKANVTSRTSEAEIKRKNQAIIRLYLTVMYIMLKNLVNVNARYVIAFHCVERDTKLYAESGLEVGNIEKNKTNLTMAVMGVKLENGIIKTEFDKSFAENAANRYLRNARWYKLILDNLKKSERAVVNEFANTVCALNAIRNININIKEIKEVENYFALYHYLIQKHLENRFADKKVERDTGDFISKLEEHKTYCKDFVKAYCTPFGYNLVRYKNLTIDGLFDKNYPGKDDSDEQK


The binders below were run against T1, EsCas13d, nuclease-dead (assay: crRNA (strand 1, pre-loaded); Mg2+; 40 mM Tris-HCl pH 7.5, 150 mM NaCl, 6 mM MgCl2, 1 mM DTT, 0.1% Tween-20, 0.2 mg/ml BSA; 25 C; 10 min per concentration, then washed). Conditions: tags: His6-TwinStrep-SUMO cleaved; N-terminal SNAP kept (SNAP-Surface 488); label: 3' end held by stalled T7 RNA polymerase.

| Binder | Kd |
| --- | --- |
| target 2 MT 5'PFS ACA 3'PFS AUC (mixed) RNA 1: CACCCGUGCAAAAUUGCAGGGGUCUAAAACCUUCUCCAAAUUGUUUCAUCCU RNA 2: GGGAAUGGAUCCACAUCUACGAAUUCACAAGGAUGAAACAAUUUGGAGAAGAUCAGAUCGGAAGAGCACACGU | 6.2 ± 1.3 nM |
| target 2 MT 5'PFS UUA 3'PFS UGC (mixed) RNA 1: CACCCGUGCAAAAUUGCAGGGGUCUAAAACCUUCUCCAAAUUGUUUCAUCCU RNA 2: GGGAAUGGAUCCACAUCUACGAAUUCUUAAGGAUGAAACAAUUUGGAGAAGUGCAGAUCGGAAGAGCACACGU | 33 ± 9 nM |
| target 2 MT 5'PFS CAC 3'PFS ACA (mixed) RNA 1: CACCCGUGCAAAAUUGCAGGGGUCUAAAACCUUCUCCAAAUUGUUUCAUCCU RNA 2: GGGAAUGGAUCCACAUCUACGAAUUCCACAGGAUGAAACAAUUUGGAGAAGACAAGAUCGGAAGAGCACACGU | 2.5 ± 0.6 nM |
| target 2 MT 5'PFS UAU 3'PFS CGU (mixed) RNA 1: CACCCGUGCAAAAUUGCAGGGGUCUAAAACCUUCUCCAAAUUGUUUCAUCCU RNA 2: GGGAAUGGAUCCACAUCUACGAAUUCUAUAGGAUGAAACAAUUUGGAGAAGCGUAGAUCGGAAGAGCACACGU | 15.6 ± 1.8 nM |
| target 2 MT 5'PFS AAG 3'PFS ACU (mixed) RNA 1: CACCCGUGCAAAAUUGCAGGGGUCUAAAACCUUCUCCAAAUUGUUUCAUCCU RNA 2: GGGAAUGGAUCCACAUCUACGAAUUCAAGAGGAUGAAACAAUUUGGAGAAGACUAGAUCGGAAGAGCACACGU | 9 ± 1.3 nM |
| target 2 MT 5'PFS AUU 3'PFS UAA (mixed) RNA 1: CACCCGUGCAAAAUUGCAGGGGUCUAAAACCUUCUCCAAAUUGUUUCAUCCU RNA 2: GGGAAUGGAUCCACAUCUACGAAUUCAUUAGGAUGAAACAAUUUGGAGAAGUAAAGAUCGGAAGAGCACACGU | 5.4 ± 0.8 nM |
| target 2 MT 5'PFS GCA 3'PFS UGC (mixed) RNA 1: CACCCGUGCAAAAUUGCAGGGGUCUAAAACCUUCUCCAAAUUGUUUCAUCCU RNA 2: GGGAAUGGAUCCACAUCUACGAAUUCGCAAGGAUGAAACAAUUUGGAGAAGUGCAGAUCGGAAGAGCACACGU | 12.7 ± 2.3 nM |
| target 2 MT 5'PFS UAU 3'PFS CGC (mixed) RNA 1: CACCCGUGCAAAAUUGCAGGGGUCUAAAACCUUCUCCAAAUUGUUUCAUCCU RNA 2: GGGAAUGGAUCCACAUCUACGAAUUCUAUAGGAUGAAACAAUUUGGAGAAGCGCAGAUCGGAAGAGCACACGU | 75 ± 13 nM |
| target 2 MT 5'PFS UAU 3'PFS AGA (mixed) RNA 1: CACCCGUGCAAAAUUGCAGGGGUCUAAAACCUUCUCCAAAUUGUUUCAUCCU RNA 2: GGGAAUGGAUCCACAUCUACGAAUUCUAUAGGAUGAAACAAUUUGGAGAAGAGAAGAUCGGAAGAGCACACGU | 21.1 ± 2.7 nM |
| target 2 MT 5'PFS GAU 3'PFS UCG (mixed) RNA 1: CACCCGUGCAAAAUUGCAGGGGUCUAAAACCUUCUCCAAAUUGUUUCAUCCU RNA 2: GGGAAUGGAUCCACAUCUACGAAUUCGAUAGGAUGAAACAAUUUGGAGAAGUCGAGAUCGGAAGAGCACACGU | 15.2 ± 1.5 nM |
| target 2 MT 5'PFS AAG 3'PFS ACA (mixed) RNA 1: CACCCGUGCAAAAUUGCAGGGGUCUAAAACCUUCUCCAAAUUGUUUCAUCCU RNA 2: GGGAAUGGAUCCACAUCUACGAAUUCAAGAGGAUGAAACAAUUUGGAGAAGACAAGAUCGGAAGAGCACACGU | 5 ± 0.9 nM |
| target 2 MT 5'PFS UAU 3'PFS AGC (mixed) RNA 1: CACCCGUGCAAAAUUGCAGGGGUCUAAAACCUUCUCCAAAUUGUUUCAUCCU RNA 2: GGGAAUGGAUCCACAUCUACGAAUUCUAUAGGAUGAAACAAUUUGGAGAAGAGCAGAUCGGAAGAGCACACGU | 21 ± 2.4 nM |
| target 2 MT 5'PFS UAU 3'PFS CGG (mixed) RNA 1: CACCCGUGCAAAAUUGCAGGGGUCUAAAACCUUCUCCAAAUUGUUUCAUCCU RNA 2: GGGAAUGGAUCCACAUCUACGAAUUCUAUAGGAUGAAACAAUUUGGAGAAGCGGAGAUCGGAAGAGCACACGU | 52 ± 11 nM |
| target 2 MT 5'PFS ACA 3'PFS AUA (mixed) RNA 1: CACCCGUGCAAAAUUGCAGGGGUCUAAAACCUUCUCCAAAUUGUUUCAUCCU RNA 2: GGGAAUGGAUCCACAUCUACGAAUUCACAAGGAUGAAACAAUUUGGAGAAGAUAAGAUCGGAAGAGCACACGU | 5.7 ± 1.1 nM |
| target 2 MT 5'PFS CAC 3'PFS ACU (mixed) RNA 1: CACCCGUGCAAAAUUGCAGGGGUCUAAAACCUUCUCCAAAUUGUUUCAUCCU RNA 2: GGGAAUGGAUCCACAUCUACGAAUUCCACAGGAUGAAACAAUUUGGAGAAGACUAGAUCGGAAGAGCACACGU | 2.7 ± 1.1 nM |
| target 2 MT 5'PFS UAU 3'PFS GCC (mixed) RNA 1: CACCCGUGCAAAAUUGCAGGGGUCUAAAACCUUCUCCAAAUUGUUUCAUCCU RNA 2: GGGAAUGGAUCCACAUCUACGAAUUCUAUAGGAUGAAACAAUUUGGAGAAGGCCAGAUCGGAAGAGCACACGU | 43 ± 20 nM |
| target 2 MT 5'PFS AAG 3'PFS ACG (mixed) RNA 1: CACCCGUGCAAAAUUGCAGGGGUCUAAAACCUUCUCCAAAUUGUUUCAUCCU RNA 2: GGGAAUGGAUCCACAUCUACGAAUUCAAGAGGAUGAAACAAUUUGGAGAAGACGAGAUCGGAAGAGCACACGU | 5.1 ± 0.9 nM |
| target 2 MT 5'PFS GAU 3'PFS UCA (mixed) RNA 1: CACCCGUGCAAAAUUGCAGGGGUCUAAAACCUUCUCCAAAUUGUUUCAUCCU RNA 2: GGGAAUGGAUCCACAUCUACGAAUUCGAUAGGAUGAAACAAUUUGGAGAAGUCAAGAUCGGAAGAGCACACGU | 21 ± 7 nM |
| target 2 MT 5'PFS AAG 3'PFS ACC (mixed) RNA 1: CACCCGUGCAAAAUUGCAGGGGUCUAAAACCUUCUCCAAAUUGUUUCAUCCU RNA 2: GGGAAUGGAUCCACAUCUACGAAUUCAAGAGGAUGAAACAAUUUGGAGAAGACCAGAUCGGAAGAGCACACGU | ~27 nM |
| target 2 MT 5'PFS UAU 3'PFS AGG (mixed) RNA 1: CACCCGUGCAAAAUUGCAGGGGUCUAAAACCUUCUCCAAAUUGUUUCAUCCU RNA 2: GGGAAUGGAUCCACAUCUACGAAUUCUAUAGGAUGAAACAAUUUGGAGAAGAGGAGAUCGGAAGAGCACACGU | 28.1 ± 3.3 nM |
| target 2 MT 5'PFS CAC 3'PFS ACG (mixed) RNA 1: CACCCGUGCAAAAUUGCAGGGGUCUAAAACCUUCUCCAAAUUGUUUCAUCCU RNA 2: GGGAAUGGAUCCACAUCUACGAAUUCCACAGGAUGAAACAAUUUGGAGAAGACGAGAUCGGAAGAGCACACGU | 2.8 ± 0.8 nM |
| target 2 MT 5'PFS GAU 3'PFS UCC (mixed) RNA 1: CACCCGUGCAAAAUUGCAGGGGUCUAAAACCUUCUCCAAAUUGUUUCAUCCU RNA 2: GGGAAUGGAUCCACAUCUACGAAUUCGAUAGGAUGAAACAAUUUGGAGAAGUCCAGAUCGGAAGAGCACACGU | ~80 nM |
| target 2 MT 5'PFS UUA 3'PFS UGU (mixed) RNA 1: CACCCGUGCAAAAUUGCAGGGGUCUAAAACCUUCUCCAAAUUGUUUCAUCCU RNA 2: GGGAAUGGAUCCACAUCUACGAAUUCUUAAGGAUGAAACAAUUUGGAGAAGUGUAGAUCGGAAGAGCACACGU | 23.1 ± 3 nM |
| target 2 MT 5'PFS GCA 3'PFS UGA (mixed) RNA 1: CACCCGUGCAAAAUUGCAGGGGUCUAAAACCUUCUCCAAAUUGUUUCAUCCU RNA 2: GGGAAUGGAUCCACAUCUACGAAUUCGCAAGGAUGAAACAAUUUGGAGAAGUGAAGAUCGGAAGAGCACACGU | 13 ± 4 nM |
| target 2 MT 5'PFS GCA 3'PFS UGU (mixed) RNA 1: CACCCGUGCAAAAUUGCAGGGGUCUAAAACCUUCUCCAAAUUGUUUCAUCCU RNA 2: GGGAAUGGAUCCACAUCUACGAAUUCGCAAGGAUGAAACAAUUUGGAGAAGUGUAGAUCGGAAGAGCACACGU | 25 ± 5 nM |
| target 1 C2G,G17C (mixed) RNA 1: CACCCGUGCAAAAAUGCAGGGGUCUAAAACUGAGCGGAUAACCUCUCUAUGG RNA 2: GGGAAUGGAUCCACAUCUACGAAUUCGUACCAUACAGAGGUUAUCCGCUGACCGAGAUCGGAAGAGCACACGU | 50 ± 6 nM |
| target 1 A1U,C7G (mixed) RNA 1: CACCCGUGCAAAAAUGCAGGGGUCUAAAACUGAGCGGAUAACCUCUCUAUGG RNA 2: GGGAAUGGAUCCACAUCUACGAAUUCGUACCAUAGAGAGGUUAUGCGCUCUCCGAGAUCGGAAGAGCACACGU | 9.9 ± 0.8 nM |
| target 1 U11A,A14G (mixed) RNA 1: CACCCGUGCAAAAAUGCAGGGGUCUAAAACUGAGCGGAUAACCUCUCUAUGG RNA 2: GGGAAUGGAUCCACAUCUACGAAUUCGUACCAUAGAGGGGAUAUCCGCUCACCGAGAUCGGAAGAGCACACGU | 43 ± 4 nM |
